Measured values reported in patent US20240391950A1, “PEPTIDE CROSSLINKING AGENT AND CROSSLINKED PEPTIDE WHICH IS CROSSLINKED USING SAID CROSSLINKING AGENT” (Kagoshima University, priority 2020, published 2024).
One block for each binder: values may come before it. Positions of bridges follow the written chain, without caps; N, C: chain ends. No end group written: not given here.

Legend:
[1] = target: human IgG1 (human); assay: SPR, BIAcore T200, IgG immobilised on CM5 chip
[2] = target: human serum-derived IgG (manufactured by Sigma-Aldrich Co. LLC); assay: peptide-immobilised column, human serum IgG, 10% breakthrough
[3] = target: human IgG1 (human); assay: SPR, BIAcore T200, IgG immobilised on CM5 chip, peptide as analyte
[4] = target: human serum-derived IgG (manufactured by Sigma-Aldrich Co. LLC); assay: 1 mL column with 1 mg peptide immobilised, human serum IgG; 1 wash with 0.1 N NaOH
[5] = target: human serum-derived IgG (manufactured by Sigma-Aldrich Co. LLC); assay: 1 mL column with 1 mg peptide immobilised, human serum IgG; 2 washes with 0.1 N NaOH
[6] = target: human serum-derived IgG (manufactured by Sigma-Aldrich Co. LLC); assay: 1 mL column with 1 mg peptide immobilised, human serum IgG; 3 washes with 0.1 N NaOH
[7] = target: human serum-derived IgG (manufactured by Sigma-Aldrich Co. LLC); assay: 1 mL column with 1 mg peptide immobilised, human serum IgG; 4 washes with 0.1 N NaOH
[8] = target: human serum-derived IgG (manufactured by Sigma-Aldrich Co. LLC); assay: 1 mL column with 1 mg peptide immobilised, human serum IgG; 5 washes with 0.1 N NaOH
[9] = target: human serum-derived IgG (manufactured by Sigma-Aldrich Co. LLC); assay: 1 mL column with 1 mg peptide immobilised, human serum IgG; 10 washes with 0.1 N NaOH
[10] = target: human serum-derived IgG (manufactured by Sigma-Aldrich Co. LLC); assay: 1 mL column with 1 mg peptide immobilised, human serum IgG; 20 washes with 0.1 N NaOH
[11] = target: human serum-derived IgG (manufactured by Sigma-Aldrich Co. LLC); assay: 1 mL column with 1 mg peptide immobilised, human serum IgG; 30 washes with 0.1 N NaOH
[12] = target: human serum-derived IgG (manufactured by Sigma-Aldrich Co. LLC); assay: 1 mL column with 1 mg peptide immobilised, human serum IgG, 10% breakthrough; 1 wash with 0.1 N NaOH
[13] = target: human serum-derived IgG (manufactured by Sigma-Aldrich Co. LLC); assay: 1 mL column with 1 mg peptide immobilised, human serum IgG 1 mg/mL at 1 mL/min; 1 wash with 0.1 N NaOH
[14] = target: human serum-derived IgG (manufactured by Sigma-Aldrich Co. LLC); assay: 1 mL column with 1 mg peptide immobilised, human serum IgG, 10% breakthrough; 2 washes with 0.1 N NaOH
[15] = target: human serum-derived IgG (manufactured by Sigma-Aldrich Co. LLC); assay: 1 mL column with 1 mg peptide immobilised, human serum IgG, 10% breakthrough; 3 washes with 0.1 N NaOH
[16] = target: human serum-derived IgG (manufactured by Sigma-Aldrich Co. LLC); assay: 1 mL column with 1 mg peptide immobilised, human serum IgG, 10% breakthrough; 4 washes with 0.1 N NaOH
[17] = target: human serum-derived IgG (manufactured by Sigma-Aldrich Co. LLC); assay: 1 mL column with 1 mg peptide immobilised, human serum IgG, 10% breakthrough; 5 washes with 0.1 N NaOH
[18] = target: human serum-derived IgG (manufactured by Sigma-Aldrich Co. LLC); assay: 1 mL column with 1 mg peptide immobilised, human serum IgG, 10% breakthrough; 10 washes with 0.1 N NaOH
[19] = target: human serum-derived IgG (manufactured by Sigma-Aldrich Co. LLC); assay: 1 mL column with 1 mg peptide immobilised, human serum IgG, 10% breakthrough; 20 washes with 0.1 N NaOH
[20] = target: human serum-derived IgG (manufactured by Sigma-Aldrich Co. LLC); assay: 1 mL column with 1 mg peptide immobilised, human serum IgG, 10% breakthrough; 30 washes with 0.1 N NaOH
[21] = target: human serum-derived IgG (manufactured by Sigma-Aldrich Co. LLC); assay: 1 mL column with 1 mg peptide immobilised, human serum IgG 1 mg/mL at 1 mL/min; 2 washes with 0.1 N NaOH
[22] = target: human serum-derived IgG (manufactured by Sigma-Aldrich Co. LLC); assay: 1 mL column with 1 mg peptide immobilised, human serum IgG 1 mg/mL at 1 mL/min; 3 washes with 0.1 N NaOH
[23] = target: human serum-derived IgG (manufactured by Sigma-Aldrich Co. LLC); assay: 1 mL column with 1 mg peptide immobilised, human serum IgG 1 mg/mL at 1 mL/min; 4 washes with 0.1 N NaOH
[24] = target: human serum-derived IgG (manufactured by Sigma-Aldrich Co. LLC); assay: 1 mL column with 1 mg peptide immobilised, human serum IgG 1 mg/mL at 1 mL/min; 5 washes with 0.1 N NaOH
[25] = target: human serum-derived IgG (manufactured by Sigma-Aldrich Co. LLC); assay: 1 mL column with 1 mg peptide immobilised, human serum IgG 1 mg/mL at 1 mL/min; 10 washes with 0.1 N NaOH
[26] = target: human serum-derived IgG (manufactured by Sigma-Aldrich Co. LLC); assay: 1 mL column with 1 mg peptide immobilised, human serum IgG 1 mg/mL at 1 mL/min; 20 washes with 0.1 N NaOH
[27] = target: human serum-derived IgG (manufactured by Sigma-Aldrich Co. LLC); assay: 1 mL column with 1 mg peptide immobilised, human serum IgG 1 mg/mL at 1 mL/min; 30 washes with 0.1 N NaOH
[28] = target: human IgG1 (human); assay: SPR, BIAcore T200, IgG immobilised on CM5 chip; the text value differs from Table 1 (8.0)

- fold reduction of affinity against the original peptide [1]: 5 fold
- DBC relative to the original IgG-binding peptide-immobilized column [2]: 74%
- Kd [3]: 45.6 nM
- Variation (%) in maximum binding capacity [4]: 100%
- Variation (%) in maximum binding capacity [5]: 100%
- Variation (%) in maximum binding capacity [6]: 102%
- Variation (%) in maximum binding capacity [7]: 104%
- Variation (%) in maximum binding capacity [8]: 103%
- Variation (%) in maximum binding capacity [9]: 96.3%
- Variation (%) in maximum binding capacity [10]: 86.3%
- Variation (%) in maximum binding capacity [11]: 90.7%
- Dynamic binding capacity [12]: 12.8 mg/mL
- Variation (%) in dynamic binding capacity [12]: 100%
- Maximum binding capacity [13]: 9.68 mg
- Dynamic binding capacity [14]: 12.8 mg/mL
- Variation (%) in dynamic binding capacity [14]: 100%
- Dynamic binding capacity [15]: 12.2 mg/mL
- Variation (%) in dynamic binding capacity [15]: 95.3%
- Dynamic binding capacity [16]: 12.2 mg/mL
- Variation (%) in dynamic binding capacity [16]: 95.3%
- Dynamic binding capacity [17]: 12.4 mg/mL
- Variation (%) in dynamic binding capacity [17]: 96.9%
- Dynamic binding capacity [18]: 12.2 mg/mL
- Variation (%) in dynamic binding capacity [18]: 95.3%
- Dynamic binding capacity [19]: 12.4 mg/mL
- Variation (%) in dynamic binding capacity [19]: 96.9%
- Dynamic binding capacity [20]: 11.6 mg/mL
- Variation (%) in dynamic binding capacity [20]: 90.6%
- Maximum binding capacity [21]: 9.7 mg
- Maximum binding capacity [22]: 9.88 mg
- Maximum binding capacity [23]: 10.1 mg
- Maximum binding capacity [24]: 9.93 mg
- Maximum binding capacity [25]: 9.32 mg
- Maximum binding capacity [26]: 8.35 mg
- Maximum binding capacity [27]: 8.78 mg
B1: 1,1-dichloroacetone-crosslinked cyclic peptide of IgG-BP-LongGS (peptide)
peptide: GSGGSGPDCAYHRGELVWCTFH
modifications: not fully specified; the thiol groups of the two Cys residues crosslinked with 1,1-dichloroacetone (1,1-Dichloro-2-propanone) in place of the disulfide bond; Fmoc removed

- Kd [3]: 8 nM
- Variation (%) in maximum binding capacity [4]: 100%
- Variation (%) in maximum binding capacity [8]: 49.2%
- Kd [28]: 8.2 nM
- Dynamic binding capacity [12]: 17.2 mg/mL
- Variation (%) in dynamic binding capacity [12]: 100%
- Maximum binding capacity [13]: 12.4 mg
- Dynamic binding capacity [17]: 8.74 mg/mL
- Variation (%) in dynamic binding capacity [17]: 50.7%
- Maximum binding capacity [24]: 6.09 mg
Binder: GSGGSGPDCAYHRGELVWCTFH (disulfide 9-19 (inferred); not fully specified) [IgG-BP-LongGS, original IgG-binding peptide having a disulfide bond (GSGGS-…)]
